Assay results from PMC11173125.

Target: Nsp9 (SARS-CoV-2, UniProt P0DTD1 4141-4253)
Assay: EMSA
Conditions: protein: recombinant; tags: C-terminal […]; (pET21b); chain copies: 2; label: 5' biotin; single strand

## TTTTTTTTTTTTTTTTTTTTTTTTTTTTTTTTTTTTTTTTTTTTT (ssDNA) [dT45]
  apparent K (half saturation): 33.5 ± 2.5 µM
